Article PMC12724371 (2025)

Target: T1, OC43 spike S2 subunit extracellular domain with T4 foldon (HCoV-OC43)
T1 chain: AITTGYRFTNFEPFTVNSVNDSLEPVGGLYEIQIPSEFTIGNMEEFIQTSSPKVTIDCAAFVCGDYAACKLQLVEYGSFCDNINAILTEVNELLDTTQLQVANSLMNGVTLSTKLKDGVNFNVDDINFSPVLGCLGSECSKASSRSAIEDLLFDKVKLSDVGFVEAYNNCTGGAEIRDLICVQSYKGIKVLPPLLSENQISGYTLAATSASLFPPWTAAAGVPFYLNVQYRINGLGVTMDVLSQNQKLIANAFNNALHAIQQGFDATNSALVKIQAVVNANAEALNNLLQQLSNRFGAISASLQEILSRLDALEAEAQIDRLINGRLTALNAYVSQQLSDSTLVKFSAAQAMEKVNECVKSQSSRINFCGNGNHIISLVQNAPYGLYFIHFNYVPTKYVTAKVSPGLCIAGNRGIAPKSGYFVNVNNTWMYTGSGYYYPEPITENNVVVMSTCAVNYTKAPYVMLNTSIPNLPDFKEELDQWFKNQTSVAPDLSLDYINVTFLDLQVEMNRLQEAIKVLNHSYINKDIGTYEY
Assay: BLI

B1: 1871 Fab (Fab, V domains shown)
VH: EVQLVESGGGLVKPGGSLRLSCVASGFSFSIYSMNWVRQAPGKGLEWVSYISSSSSYKYYADSVKGRFSVSRDNAKNSLYLQLNGLRAEDTAVYYCARDGYCPKGVCTYYGMDVWGQGTTVTVSA
VL: EIVMTQSPATLSVSPGERVTLSCRASQSVRSRLAWFQQKPGQAPRLLIYDASIRATGIPARFSGSGSGTEFTLIISSLQSEDFAVYYCQQYDNWPPAYTFGQGTKLEIK
Kd: < 1 pM
